Data: patent publication US8642834B2, “Methods for the identification of agents that inhibit mesenchymal-like tumor cells or their formation” (OSI Pharmaceuticals, LLC, priority 2009, dated 2014)

How the values were obtained:
Assay type in all cases: cell-based, human
CFPAC-1 cells [1] = assay: Cell morphology by light microscopy; conditions: treated 7 days; versus untreated cells that formed colonies
Procedure: The CFPAC1 cell line was cultured in DMEM media (Gibco #11960) supplemented with 10% FBS (Sigma), 2 mM L Glutamine (Gibco), at 37° C., 5% CO2. For 7 day treatments, cells were seeded on tissue culture plastic in complete growth media and allowed to attach overnight at cell densities that would provide approximately 60-80% confluence at end of experiment. Ligand and/or inhibitor was added the following day (Day 0) in complete growth media and incubated at 37° C., 5% CO2. Ligand source and concentrations used are as follows: [1] From R&D systems, SDF-1α (stromal derived factor-1 alpha) at 100 ng/ml, TRANCE (TNF-related activation induced cytokine) at 50 ng/ml, FGF1 (fibroblast growth factor acidic) at 10 ng/ml, FGF2 (fibroblast growth factor basic) at 10 ng/ml, BMP4 (bone morphogenetic protein 4) at 100 ng/ml, BMP7 (bone morphogenetic protein 7) at 100 ng/ml, IGF2 (insulin-like growth factor 2) at 100 ng/ml, OSM (Oncostatin M) at 100 ng/ml, NRG1 (Neuregulin-1) at 50 ng/ml, PDGFaa (Platelet derived growth factor a) at 50 ng/ml, PDGFbb (platelet derive growth factor b) at 30 ng/ml, Ang2 (Angiopoeitin 2) at 400 ng/ml, amphiregulin at 100 ng/ml, HMGB 1 (Human high-mobility group box 1 protein) at 50 ng/ml; [2] […]

CFPAC1 cells [2] = assay: Transcriptional changes to EMT genes, qPCR
Procedure: The CFPAC1 cell line was cultured in DMEM media (Gibco #11960) supplemented with 10% FBS (Sigma), 2 mM L Glutamine (Gibco), at 37° C., 5% CO2. For 7 day treatments, cells were seeded on tissue culture plastic in complete growth media and allowed to attach overnight at cell densities that would provide approximately 60-80% confluence at end of experiment. Ligand and/or inhibitor was added the following day (Day 0) in complete growth media and incubated at 37° C., 5% CO2. Ligand source and concentrations used are as follows: [1] From R&D systems, SDF-1α (stromal derived factor-1 alpha) at 100 ng/ml, TRANCE (TNF-related activation induced cytokine) at 50 ng/ml, FGF1 (fibroblast growth factor acidic) at 10 ng/ml, FGF2 (fibroblast growth factor basic) at 10 ng/ml, BMP4 (bone morphogenetic protein 4) at 100 ng/ml, BMP7 (bone morphogenetic protein 7) at 100 ng/ml, IGF2 (insulin-like growth factor 2) at 100 ng/ml, OSM (Oncostatin M) at 100 ng/ml, NRG1 (Neuregulin-1) at 50 ng/ml, PDGFaa (Platelet derived growth factor a) at 50 ng/ml, PDGFbb (platelet derive growth factor b) at 30 ng/ml, Ang2 (Angiopoeitin 2) at 400 ng/ml, amphiregulin at 100 ng/ml, HMGB 1 (Human high-mobility group box 1 protein) at 50 ng/ml; [2] From Genscript, LIF (Leukemia inhibitory factor) at 20 ng/ml, GM-CSF (Granulocyte macrophage colony stimulating factor) at 25 ng/ml, M-CSF (Macrophage colony stimulating factor) at 50 ng/ml; [3] From Anaspec, PAR1 (Protease activated receptor 1 agonist) at 100 μM; PAR2 (Protease activated receptor 2 agonist; peptide SLIGKV-NH2, Cat. No. 60217-1) at 100 μM; PAR4 (Protease activated receptor […] agonist; peptide AYPGKF-NH2, Cat. No. 60218-1) at 100 μM; [4] From Peprotech, HGF (Hepatocyte Growth Factor) at 100 ng/ml; IL-31 (Interleukin-31) at 50 ng/ml, IL-33 (Interleukin-33) at 50 ng/ml, IL1-a (Interleukin-1 alpha) at 10 ng/ml, CTGF (Connective tissue growth factor) at 20 ng/ml, WISP1 (Wnt-1 inducible signaling pathway protein) at 20 ng/ml, PTHrP ([…] hormone-related protein) at 50 ng/ml, MCP1 (monocyte chemotactic protein-1) at 50 ng/ml; and [5] from Sigma, Fulvestrant at 1 μM. Fresh medium containing ligand and/or inhibitor was added 3-4 days after initial dose, and at Day 7 cells were harvested for western blot analysis.
Cells were plated and treated with ligand for one or 7 days. At the time of harvest, cells were trypsinized and snap frozen for later use. Total RNA was isolated using RNAqueous-4 PCR Kit (Ambion, AM1914). For qPCR on tumor material, the tumor samples were homogenized using a small tissue homogenizer (Ultra-Turrax T8 from IKA-Werke) in 175ul RNA lysis buffer. Homogenization was for 1 minute on ice. RNA was isolated using the SV Total RNA Isolation System (Promega Cat #Z3100) according to the manufactures instructions. Samples were DNase treated using the Turbo DNA-Free kit (Ambion, AM1907) and reverse transcribed using Superscript III (Invitrogen, 18080-044) for qPCR analysis. Taqman primers and Locked-Nucleic Acid probes were designed using ProbeFinder software (Universal Probe library, Roche). For mRNA analysis, real time PCR was performed using the ABI 7900HT series PCR machine. Thermocycle conditions were as follows: 50° C. for 2 minutes, 95° C. for 10 minutes, 95° C. for 15 seconds, 50° C. for 10 seconds, 60° C. for 1 minute. Data was collected over 45 cycles and then normalized to GAPDH and further normalized to the untreated control sample.

CFPAC1 cells [3] = assay: Doubling time after ligand treatment; conditions: after 7 day ligand treatment, versus untreated
Procedure: Cells were plated and treated with ligand for 7 days. On day 7, cells were counted and re-plated on 6 cm cell culture dishes. On days 3, 5, 7, 10 and 12, cells were trypsinized and counted to determine the total number of cells in the dish, in duplicate. Doubling time was calculated using the multiple time point method on the website www.doubling-time.com.

CFPAC-1 cells [4] = assay: MET/EMT reversion experiment (ligand withdrawal); conditions: ligand 14 days, then removed; morphology and E-cadherin/vimentin immunoblot
Procedure: Cells were cultured in complete medium with and without ligand for 14 days, during which time the media and ligand treatment was replaced every 3-4 days. 3 Days prior to the first time point (Day 14), cells were trypsinised, counted and seeded into plastic 35 mm dishes at appropriate seeding densities for the first 3 collection time points. 3 Days prior to the last of the 3 collection time points, the procedure was repeated for the second 3 collection time points, and so on until all time points were collected. Ligand was removed from all cultures at Day 14. At the time of harvest, cells were harvested as described in the western blotting section above. All samples were micro-centrifuged and stored at −80° C. until the end of the experiment, at which time all samples were processed for western blotting.

B1: OSM: Oncostatin M from R&D systems, used at 100 ng/ml (protein, UniProt P13725 26-221, looked up)
Oncostatin-M: AAIGSCSKEYRVLLGQLQKQTDLMQDTSRLLDPYIRIQGLDVPKLREHCRERPGAFPSEETLRGLGRRGFLQTLNATLGCVLHRLADLEQRLPKAQDLERSGLNIEDLEKLQMARPNILGLRNNIYCMAQLLDNSDTAEPTKAGRGASQPPTPTPASDAFQRKLEGCRFLHGYHRFMHSVGRVFSKWGESPNRSRR
CFPAC-1 cells [1]
  Cell morphology: less compact with more elongated cell morphology
CFPAC1 cells [2]; ligand 1 Day
  ACTN1 mRNA fold change: NC (Only changes greater than 3 fold are reported. NC indicates no change.)
  CDH1 mRNA fold change: NC (Only changes greater than 3 fold are reported. NC indicates no change.)
  CDH2 mRNA fold change: NC (Only changes greater than 3 fold are reported. NC indicates no change.)
  ITGB3 mRNA fold change: 31.39 fold
  MMP7 mRNA fold change: NC (Only changes greater than 3 fold are reported. NC indicates no change.)
  MTA3 mRNA fold change: NC (Only changes greater than 3 fold are reported. NC indicates no change.)
  PLAUR mRNA fold change: NC (Only changes greater than 3 fold are reported. NC indicates no change.)
  SNAI1 mRNA fold change: NC (Only changes greater than 3 fold are reported. NC indicates no change.)
  SNAI2 mRNA fold change: NC (Only changes greater than 3 fold are reported. NC indicates no change.)
  SPARC mRNA fold change: NC (Only changes greater than 3 fold are reported. NC indicates no change.)
  TWIST1 mRNA fold change: NC (Only changes greater than 3 fold are reported. NC indicates no change.)
  VIM mRNA fold change: NC (Only changes greater than 3 fold are reported. NC indicates no change.)
  ZEB1 mRNA fold change: NC (Only changes greater than 3 fold are reported. NC indicates no change.)
  ZEB2 mRNA fold change: 3.52 fold
CFPAC1 cells [2]; ligand 7 Day
  ACTN1 mRNA fold change: NC (Only changes greater than 3 fold are reported. NC indicates no change.)
  CDH1 mRNA fold change: −3.06 fold
  CDH2 mRNA fold change: NC (Only changes greater than 3 fold are reported. NC indicates no change.)
  ITGB3 mRNA fold change: 106.2 fold
  MMP7 mRNA fold change: NC (Only changes greater than 3 fold are reported. NC indicates no change.)
  MTA3 mRNA fold change: NC (Only changes greater than 3 fold are reported. NC indicates no change.)
  PLAUR mRNA fold change: NC (Only changes greater than 3 fold are reported. NC indicates no change.)
  SNAI1 mRNA fold change: NC (Only changes greater than 3 fold are reported. NC indicates no change.)
  SNAI2 mRNA fold change: NC (Only changes greater than 3 fold are reported. NC indicates no change.)
  SPARC mRNA fold change: −33 fold
  TWIST1 mRNA fold change: 3.3 fold
  VIM mRNA fold change: NC (Only changes greater than 3 fold are reported. NC indicates no change.)
  ZEB1 mRNA fold change: 3.00 fold
  ZEB2 mRNA fold change: 13.7 fold
CFPAC1 cells [3]
  Increase of doubling time: approximately 50%
CFPAC-1 cells [4]
  Reversal of EMT upon withdrawal of ligand: can be reversed
